This series concerns the molecule itself. As to the kind of experiment: native gel or EMSA. (In general: Mobility shift assays separate free from complexed probe on a gel.)

B1: LamB (natural protein)
chain: VDFHGYARSGIGWTGSGGEQQCFQTTGAQSKYRLGNECETYAELKLGQEVWKEGDKSFYFDTNVAYSVAQQNDWEATDPAFREANVQGKNLIEWLPGSTIWAGKRFYQRHDVHMIDFYYWDISGPGAGLENIDVGFGKLSLAATRSSEAGGSSSFASNNIYDYTNETANDVFDVRLAQMEINPGGTLELGVDYGRANLRDNYRLVDGASKDGWLFTAEHTQSVLKGFNKFVVQYATDSMTSQGKGLSQGSGVAFDNEKFAYNINNNGHMLRILDHGAISMGDNWDMMYVGMYQDINWDNDNGTKWWTVGIRPMYKWTPIMSTVMEIGYDNVESQRTGDKNNQYKITLAQQWQAGDSIWSRPAIRVFATYAKWDEKWGYDYTGNADNNANFGKAVPADFNGGSFGRGDSDEWTFGAQMEIWW
In the case of B1, the “stoichiometry N” value was 3.

By stoichiometry N is commonly meant a count of units in the complex or per binding partner.

Values taken from PMC3779476 (Nature, 2013).
